# Paper PMC4335062, “Data-Driven Prediction and Design of bZIP Coiled-Coil Interactions” (PLoS Computational Biology, 2015)
# Where no end group is shown, it is not given here.
# Legend:
# CREBZF (human) = CREBZF (human) (UniProt Q9NS37); assay: FRET or BRET; direct-binding FRET in 384-well plates; rhodamine-labelled design (acceptor) titrated 0 to 1 uM into 10 nM fluorescein-labelled bZIP (donor); 150 mM KCl, 50 mM potassium phosphate pH 7.4, 0.1% Tween-20, 0.1% BSA; 23 °C
# BACH2 = BACH2 (Homo sapiens, UniProt Q9BYV9); assay: FRET or BRET; direct-binding FRET in 384-well plates; rhodamine-labelled design (acceptor) titrated 0 to 1 uM into 10 nM fluorescein-labelled bZIP (donor); 150 mM KCl, 50 mM potassium phosphate pH 7.4, 0.1% Tween-20, 0.1% BSA; 37 °C
# BATF3 (human) = BATF3 (human) (UniProt Q9NR55); assay: as above
# FOS = FOS (Homo sapiens, UniProt P01100); assay: as above
# HLF (human) = HLF (human) (UniProt Q16534); assay: as above
# JUN = JUN (Homo sapiens, UniProt P05412); assay: as above
# NFE2L1 = NFE2L1 (Homo sapiens, UniProt Q14494); assay: as above
# MAF = MAF (Homo sapiens, UniProt O75444); assay: FRET or BRET; direct-binding FRET in 384-well plates; rhodamine-labelled design (acceptor) titrated 0 to 1 uM into 10 nM fluorescein-labelled bZIP (donor); 150 mM KCl, 50 mM potassium phosphate pH 7.4, 0.1% Tween-20, 0.1% BSA; 23 °C
# MAFB = MAFB (Homo sapiens, UniProt Q9Y5Q3); assay: as above
# ATF2 (human) = ATF2 (human) (UniProt P15336); assay: FRET or BRET; direct-binding FRET in 384-well plates; rhodamine-labelled design (acceptor) titrated 0 to 1 uM into 10 nM fluorescein-labelled bZIP (donor); 150 mM KCl, 50 mM potassium phosphate pH 7.4, 0.1% Tween-20, 0.1% BSA; 37 °C
# ATF6B = ATF6B (Homo sapiens, UniProt Q99941); assay: as above
# [1] = target: Activating Transcription Factor (ATF) 3 (human) (UniProt P18847); assay: as above
# CREB1 (human) = CREB1 (human) (UniProt P16220); assay: as above
# MAFF (human) = MAFF (human) (UniProt Q9ULX9); assay: as above
# MAFG = MAFG (Homo sapiens, UniProt O15525); assay: as above
# NFE2L3 (human) = NFE2L3 (human) (UniProt Q9Y4A8); assay: as above
# [2] = target: X-box binding protein 1 (human) (UniProt P17861); assay: as above
# X-box binding protein 1 (human), sequence (P17861 whole entry): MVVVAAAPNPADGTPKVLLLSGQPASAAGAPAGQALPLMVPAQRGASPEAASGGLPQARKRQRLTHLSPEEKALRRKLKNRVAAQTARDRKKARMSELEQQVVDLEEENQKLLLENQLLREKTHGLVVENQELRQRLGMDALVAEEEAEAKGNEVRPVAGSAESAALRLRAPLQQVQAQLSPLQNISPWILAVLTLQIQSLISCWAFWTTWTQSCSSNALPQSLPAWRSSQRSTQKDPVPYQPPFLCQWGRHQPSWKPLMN
# BATF3 (human), sequence (Q9NR55 whole entry): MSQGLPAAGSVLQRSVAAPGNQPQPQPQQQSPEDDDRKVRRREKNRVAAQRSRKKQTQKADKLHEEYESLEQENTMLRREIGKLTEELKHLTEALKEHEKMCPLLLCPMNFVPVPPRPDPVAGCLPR
# CREBZF (human), sequence (Q9NS37 whole entry): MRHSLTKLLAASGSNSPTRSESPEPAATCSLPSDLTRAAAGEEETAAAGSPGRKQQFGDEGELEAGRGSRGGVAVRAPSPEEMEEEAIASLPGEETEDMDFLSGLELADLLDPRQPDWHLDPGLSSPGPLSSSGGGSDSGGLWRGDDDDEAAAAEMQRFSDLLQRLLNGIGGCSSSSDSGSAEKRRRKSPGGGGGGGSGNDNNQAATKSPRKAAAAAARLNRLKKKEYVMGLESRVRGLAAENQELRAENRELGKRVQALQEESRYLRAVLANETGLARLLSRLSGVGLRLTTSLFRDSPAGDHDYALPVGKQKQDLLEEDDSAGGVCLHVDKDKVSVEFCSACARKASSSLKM
# CREB1 (human), sequence (P16220 whole entry): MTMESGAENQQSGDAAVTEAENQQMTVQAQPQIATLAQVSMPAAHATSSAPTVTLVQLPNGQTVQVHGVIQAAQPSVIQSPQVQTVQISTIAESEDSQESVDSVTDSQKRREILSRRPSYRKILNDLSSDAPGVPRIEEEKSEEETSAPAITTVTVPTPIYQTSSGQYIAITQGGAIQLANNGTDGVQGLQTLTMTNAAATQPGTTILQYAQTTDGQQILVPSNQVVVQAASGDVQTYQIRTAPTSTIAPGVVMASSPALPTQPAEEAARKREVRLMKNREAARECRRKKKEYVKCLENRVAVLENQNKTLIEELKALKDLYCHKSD
# MAF, sequence (O75444 whole entry): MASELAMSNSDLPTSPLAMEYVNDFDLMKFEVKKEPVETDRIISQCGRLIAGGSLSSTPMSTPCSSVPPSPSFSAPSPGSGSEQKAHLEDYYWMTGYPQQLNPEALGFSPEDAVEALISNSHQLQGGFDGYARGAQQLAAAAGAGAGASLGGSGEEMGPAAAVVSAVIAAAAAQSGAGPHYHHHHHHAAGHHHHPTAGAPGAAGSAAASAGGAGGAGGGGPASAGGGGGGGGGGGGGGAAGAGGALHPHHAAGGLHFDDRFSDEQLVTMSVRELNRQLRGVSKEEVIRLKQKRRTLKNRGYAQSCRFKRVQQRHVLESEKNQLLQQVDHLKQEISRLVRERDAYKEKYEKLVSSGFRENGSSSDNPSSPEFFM
# NFE2L1, sequence (Q14494 whole entry): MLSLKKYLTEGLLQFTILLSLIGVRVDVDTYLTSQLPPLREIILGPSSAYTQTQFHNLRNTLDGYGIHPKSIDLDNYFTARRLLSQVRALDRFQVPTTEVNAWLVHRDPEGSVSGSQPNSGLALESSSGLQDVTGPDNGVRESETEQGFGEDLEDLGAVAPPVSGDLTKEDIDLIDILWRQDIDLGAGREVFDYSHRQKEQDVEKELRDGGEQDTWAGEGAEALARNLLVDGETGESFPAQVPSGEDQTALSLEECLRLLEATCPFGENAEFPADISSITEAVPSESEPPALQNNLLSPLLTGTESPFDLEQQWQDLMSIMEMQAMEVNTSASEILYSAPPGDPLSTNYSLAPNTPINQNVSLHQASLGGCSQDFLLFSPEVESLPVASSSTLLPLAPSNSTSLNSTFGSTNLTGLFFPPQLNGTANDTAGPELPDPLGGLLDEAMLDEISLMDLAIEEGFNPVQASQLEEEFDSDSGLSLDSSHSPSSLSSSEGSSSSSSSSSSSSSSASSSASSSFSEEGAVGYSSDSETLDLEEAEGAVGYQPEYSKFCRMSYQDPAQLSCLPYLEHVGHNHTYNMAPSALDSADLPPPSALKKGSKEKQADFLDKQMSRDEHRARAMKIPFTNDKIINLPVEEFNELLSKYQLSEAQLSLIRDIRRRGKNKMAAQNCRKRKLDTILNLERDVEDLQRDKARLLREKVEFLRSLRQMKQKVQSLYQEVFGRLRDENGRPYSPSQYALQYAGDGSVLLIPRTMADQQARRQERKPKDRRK
# MAFF (human), sequence (Q9ULX9 whole entry): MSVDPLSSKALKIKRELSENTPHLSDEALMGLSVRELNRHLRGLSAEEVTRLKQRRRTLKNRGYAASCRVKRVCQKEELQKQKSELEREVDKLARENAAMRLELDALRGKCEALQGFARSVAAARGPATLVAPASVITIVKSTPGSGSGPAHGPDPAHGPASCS
# HLF (human), sequence (Q16534 whole entry): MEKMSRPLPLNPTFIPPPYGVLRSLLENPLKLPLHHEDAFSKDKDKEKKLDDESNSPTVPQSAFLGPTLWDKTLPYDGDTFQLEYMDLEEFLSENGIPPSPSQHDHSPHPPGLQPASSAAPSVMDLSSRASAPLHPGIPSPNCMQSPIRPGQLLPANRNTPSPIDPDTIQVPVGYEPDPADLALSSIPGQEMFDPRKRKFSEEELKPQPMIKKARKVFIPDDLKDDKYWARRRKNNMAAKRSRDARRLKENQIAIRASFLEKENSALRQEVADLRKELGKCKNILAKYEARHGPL
# FOS, sequence (P01100 whole entry): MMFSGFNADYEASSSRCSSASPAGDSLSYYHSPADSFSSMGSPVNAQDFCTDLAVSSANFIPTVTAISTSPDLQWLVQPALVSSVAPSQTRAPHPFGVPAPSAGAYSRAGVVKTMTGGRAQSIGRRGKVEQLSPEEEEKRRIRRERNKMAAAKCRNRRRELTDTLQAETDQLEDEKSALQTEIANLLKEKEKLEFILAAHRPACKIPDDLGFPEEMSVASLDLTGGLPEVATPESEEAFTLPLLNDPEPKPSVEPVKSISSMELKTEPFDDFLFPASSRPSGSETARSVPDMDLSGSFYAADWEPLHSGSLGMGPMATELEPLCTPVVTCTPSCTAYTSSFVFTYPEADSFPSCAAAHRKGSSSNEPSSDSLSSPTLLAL
# JUN, sequence (P05412 whole entry): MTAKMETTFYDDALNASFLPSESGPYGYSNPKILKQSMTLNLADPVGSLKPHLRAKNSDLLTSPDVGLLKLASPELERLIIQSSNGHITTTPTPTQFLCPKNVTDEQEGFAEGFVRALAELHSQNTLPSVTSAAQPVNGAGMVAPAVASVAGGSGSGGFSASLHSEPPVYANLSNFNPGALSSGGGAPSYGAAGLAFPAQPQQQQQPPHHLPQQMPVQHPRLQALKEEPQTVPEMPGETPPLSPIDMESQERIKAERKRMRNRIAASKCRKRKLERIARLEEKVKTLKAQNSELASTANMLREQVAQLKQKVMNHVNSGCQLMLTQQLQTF
# BACH2, sequence (Q9BYV9 whole entry): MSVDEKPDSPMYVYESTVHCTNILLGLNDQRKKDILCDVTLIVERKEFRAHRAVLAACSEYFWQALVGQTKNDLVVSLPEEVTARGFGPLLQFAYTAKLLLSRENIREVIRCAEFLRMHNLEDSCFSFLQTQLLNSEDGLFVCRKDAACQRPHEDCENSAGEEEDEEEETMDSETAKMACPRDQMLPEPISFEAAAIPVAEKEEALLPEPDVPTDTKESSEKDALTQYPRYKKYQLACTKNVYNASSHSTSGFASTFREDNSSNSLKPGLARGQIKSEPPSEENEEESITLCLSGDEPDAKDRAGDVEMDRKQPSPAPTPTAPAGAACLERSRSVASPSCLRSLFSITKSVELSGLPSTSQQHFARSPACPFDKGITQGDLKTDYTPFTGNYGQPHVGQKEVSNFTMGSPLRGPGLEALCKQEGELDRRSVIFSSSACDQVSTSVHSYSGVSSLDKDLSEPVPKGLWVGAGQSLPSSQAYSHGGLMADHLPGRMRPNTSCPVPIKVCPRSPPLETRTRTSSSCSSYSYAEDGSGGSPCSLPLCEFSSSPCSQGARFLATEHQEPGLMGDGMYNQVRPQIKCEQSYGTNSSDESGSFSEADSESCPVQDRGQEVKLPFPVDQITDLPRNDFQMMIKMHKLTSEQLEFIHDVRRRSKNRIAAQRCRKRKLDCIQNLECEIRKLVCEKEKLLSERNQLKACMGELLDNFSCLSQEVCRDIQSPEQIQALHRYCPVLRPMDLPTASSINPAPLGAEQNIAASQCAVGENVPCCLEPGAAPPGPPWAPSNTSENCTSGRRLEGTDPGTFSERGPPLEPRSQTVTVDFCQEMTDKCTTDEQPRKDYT
# NFE2L3 (human), sequence (Q9Y4A8 whole entry): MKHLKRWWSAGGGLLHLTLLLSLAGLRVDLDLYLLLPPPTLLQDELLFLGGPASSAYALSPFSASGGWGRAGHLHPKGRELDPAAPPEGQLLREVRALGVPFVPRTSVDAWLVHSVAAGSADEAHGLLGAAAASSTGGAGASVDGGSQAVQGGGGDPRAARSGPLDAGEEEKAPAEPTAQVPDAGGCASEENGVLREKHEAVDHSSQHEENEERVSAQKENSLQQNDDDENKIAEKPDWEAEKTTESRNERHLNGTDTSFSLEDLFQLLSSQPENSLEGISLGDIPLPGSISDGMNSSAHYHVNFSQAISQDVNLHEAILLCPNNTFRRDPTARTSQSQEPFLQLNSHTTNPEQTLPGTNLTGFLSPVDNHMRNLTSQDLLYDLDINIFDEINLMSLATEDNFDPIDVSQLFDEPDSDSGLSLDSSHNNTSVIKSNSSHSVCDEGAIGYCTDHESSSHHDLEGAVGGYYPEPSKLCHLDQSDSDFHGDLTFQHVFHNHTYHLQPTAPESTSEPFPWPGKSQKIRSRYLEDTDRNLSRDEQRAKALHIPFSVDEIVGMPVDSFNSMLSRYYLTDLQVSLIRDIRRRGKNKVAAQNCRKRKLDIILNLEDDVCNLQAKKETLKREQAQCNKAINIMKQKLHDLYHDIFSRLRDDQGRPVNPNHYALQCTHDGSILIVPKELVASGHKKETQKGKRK
Binder,Kd (CREBZF (human)),Kd (BACH2),Kd (BATF3 (human)),Kd (FOS),Kd (HLF (human)),Kd (JUN),Kd (NFE2L1),Kd (MAF),Kd (MAFB),Kd (ATF2 (human)),Kd (ATF6B),Kd [1],Kd (CREB1 (human)),Kd (MAFF (human)),Kd (MAFG),Kd (NFE2L3 (human)),Kd [2]
"ATF5-d1 labeled at the C-terminus (designed binder, not fully specified) GESKEYKKGSGSKRIAYLRQRIAELRNENHVLESRIQRMEKEKDALQQDRDHLEYELGC(Rhodamine Red C2‑maleimide)",> 5 µM,> 5 µM,> 5 µM,> 5 µM,> 5 µM,> 5 µM,> 5 µM,,,,,,,,,,
"ATF4-d1 labeled at the C-terminus (designed binder, also: C59 label by assay: Rhodamine Red C2-maleimide or fluorescein-5-maleimide, solubility linker after the His6 tag; added to the C-terminus for labeling; one molecule for the rhodamine- and the fluorescein-labelled form; the assay tells which label stood there; also called ATF4-d1-Rhodamine; ATF4-d1-FITC; source: E. coli RP3098, purified (Ni-NTA under denaturing conditions, reverse-phase HPLC)) GESKEYKKGSGSNQIKTLRTRLSKLRKDNLQLEKDIANLERKAKDLRAEKEQLEYELGC",,,,,,,,> 5 µM,> 5 µM,> 5 µM,> 5 µM,> 5 µM,> 5 µM,0.327 µM,> 5 µM,> 5 µM,> 5 µM
